Data published in the supplement of paper PMC10567573.

B1: ALDH8A1 (parent)
chain: WSSRSPQERSRVLNQVADLLEQSL

Variants of: B1
Test: protein stability index of a GFP-peptide fusion (GPS, HEK-293T) (PSI 1-6); higher = more stable
Conditions: c terminus: a fixed tail appended
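Further: lentivirally expressed fusions sorted by FACS into six bins by GFP to DsRed ratio, PSI derived from sequencing read proportions per bin multiplied by bin number.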

Variant | protein stability index
WSSRSPQERSRVLNCVADLLEQSL [Q15C] | 1.81
WSSRSPQERSRVLNMVADLLEQSL [Q15M] | 1.67
WSSRSPQERSRVLNPVADLLEQSL [Q15P] | 3.13
WSSRSPQERSRVLNGVADLLEQSL [Q15G] | 2.66
WSSRSPQERSRVLNIVADLLEQSL [Q15I] | 2.07
WSSRSPQERSRVLNTVADLLEQSL [Q15T] | 2.59
WSSRSPQERSRVLNSVADLLEQSL [Q15S] | 2.74
WSSRSPQERSRVLNHVADLLEQSL [Q15H] | 2.13
WSSRSPQERSRVLNYVADLLEQSL [Q15Y] | 1.81
WQSRSPQERSRVLNQVADLLEQSL [S2Q] | 2.17
WCSRSPQERSRVLNQVADLLEQSL [S2C] | 1.87
WWSRSPQERSRVLNQVADLLEQSL [S2W] | 1.92
WNSRSPQERSRVLNQVADLLEQSL [S2N] | 2.78
WLSRSPQERSRVLNQVADLLEQSL [S2L] | 1.8
WRSRSPQERSRVLNQVADLLEQSL [S2R] | 2.81
WMSRSPQERSRVLNQVADLLEQSL [S2M] | 2.51
WASRSPQERSRVLNQVADLLEQSL [S2A] | 1.99
WISRSPQERSRVLNQVADLLEQSL [S2I] | 1.78
WSSRSPQERSRVLNQVALLLEQSL [D18L] | 1.86
WSSRSPQERSRVLNQVASLLEQSL [D18S] | 2.23
WSSRSPQERSRVLNQVAPLLEQSL [D18P] | 3.02
WSSRSPQERSRVLNQVACLLEQSL [D18C] | 2.03
WSSRSPQERSRVLNQVAMLLEQSL [D18M] | 2.17
WSSRSPQERSRVLNQVARLLEQSL [D18R] | 2.34

Variant | protein stability index
WSSRSPQERSRVLNQVAVLLEQSL [D18V] | 1.92
WSIRSPQERSRVLNQVADLLEQSL [S3I] | 2.2
WSLRSPQERSRVLNQVADLLEQSL [S3L] | 1.98
WSGRSPQERSRVLNQVADLLEQSL [S3G] | 1.82
WSHRSPQERSRVLNQVADLLEQSL [S3H] | 2.52
WSPRSPQERSRVLNQVADLLEQSL [S3P] | 2.54
WSSRSPQERSRVLNQFADLLEQSL [V16F] | 1.92
WSSRSPQERSRVLNQRADLLEQSL [V16R] | 3.9
WSSRWPQERSRVLNQVADLLEQSL [S5W] | 1.59
WSSRVPQERSRVLNQVADLLEQSL [S5V] | 2.81
WSSRRPQERSRVLNQVADLLEQSL [S5R] | 2.87
WSSRTPQERSRVLNQVADLLEQSL [S5T] | 2.57
WSSRDPQERSRVLNQVADLLEQSL [S5D] | 2.85
WSSRSPQERSRNLNQVADLLEQSL [V12N] | 3.99
WSSRSPQERSRDLNQVADLLEQSL [V12D] | 3.85
WSSRSPQERSRFLNQVADLLEQSL [V12F] | 2.12
WSSRSPQERSRELNQVADLLEQSL [V12E] | 3.88
WSSRSPQERSRCLNQVADLLEQSL [V12C] | 2.35
WSSRSPQERSRILNQVADLLEQSL [V12I] | 1.98
WSSRSPQHRSRVLNQVADLLEQSL [E8H] | 2.71
WSSRSPQQRSRVLNQVADLLEQSL [E8Q] | 2.57
WSSRSPQVRSRVLNQVADLLEQSL [E8V] | 2.23
WSSRSPQWRSRVLNQVADLLEQSL [E8W] | 2.36
WSSRSPQIRSRVLNQVADLLEQSL [E8I] | 2.68

Variant | protein stability index
WSSRSPQTRSRVLNQVADLLEQSL [E8T] | 2.46
WSSRSPQERSRVLQQVADLLEQSL [N14Q] | 2.41
WSSRSPQERSRVLMQVADLLEQSL [N14M] | 1.79
WSSRSPQERSRVLKQVADLLEQSL [N14K] | 1.97
WSSRSPQERSRVLLQVADLLEQSL [N14L] | 1.62
WSSRSPQERSRVLFQVADLLEQSL [N14F] | 1.26
WSSRSPQERSRVRNQVADLLEQSL [L13R] | 3.03
WSSRSPQERSRVHNQVADLLEQSL [L13H] | 2.73
WSSRSPQERSRVCNQVADLLEQSL [L13C] | 3.11
WSSRSPQERSRVLNQVADLLPQSL [E21P] | 3.24
WSSRSPQERSRVLNQVADLLTQSL [E21T] | 2.33
WSSRSPQERSRVLNQVADLLDQSL [E21D] | 2.58
WSSRSPQERSRVLNQVADLLCQSL [E21C] | 2.47
WSSRSPQERSRVLNQVADLLWQSL [E21W] | 1.58
WSSRSPQERSRVLNQVADLLAQSL [E21A] | 2.13
WSSRSPQERSRVLNQVADLLLQSL [E21L] | 2.11
WSSRSPQERRRVLNQVADLLEQSL [S10R] | 2.95
WSSRSPQERPRVLNQVADLLEQSL [S10P] | 2.49
WSSRSPQERERVLNQVADLLEQSL [S10E] | 3.11
WSSRSPQERWRVLNQVADLLEQSL [S10W] | 2.82
WSSRSPQERCRVLNQVADLLEQSL [S10C] | 2.36
WSSRSPQERDRVLNQVADLLEQSL [S10D] | 3.14
WSSRSPQERSRVLNQVADLLEDSL [Q22D] | 3.63
WSSRSPQERSRVLNQVADLLEHSL [Q22H] | 3.34

Variant | protein stability index
WSSRSPQERSRVLNQVADLLERSL [Q22R] | 2.72
WSSRSPQERSRVLNQVADLLEPSL [Q22P] | 3.31
WSSRSPQERSRVLNQVADLLEQGL [S23G] | 2.54
WSSRSPQERSRVLNQVADLLEQIL [S23I] | 2.51
WSSRSPQERSRVLNQVADLLEQHL [S23H] | 2.77
WSSRSPQERSRVLNQVADLLEQQL [S23Q] | 3.39
WSSRSPQERSRVLNQVADLLEQFL [S23F] | 2.24
WSSRSPQERSRVLNQVADLLEQVL [S23V] | 2.09
WSSRSPQERSRVLNQVADLCEQSL [L20C] | 3.45
WSSRSPQERSRVLNQVADLGEQSL [L20G] | 3.64
WSSRSPQERSRVLNQVADLTEQSL [L20T] | 4.08
WSSRSPQERSRVLNQVADLSEQSL [L20S] | 3.96
WSSRSPQEGSRVLNQVADLLEQSL [R9G] | 2.96
WSSRSPQETSRVLNQVADLLEQSL [R9T] | 2.23
WSSRSPQEMSRVLNQVADLLEQSL [R9M] | 2.16
WSSRSPQEPSRVLNQVADLLEQSL [R9P] | 3.37
ASSRSPQERSRVLNQVADLLEQSL [W1A] | 3.21
SSSRSPQERSRVLNQVADLLEQSL [W1S] | 3.69
ESSRSPQERSRVLNQVADLLEQSL [W1E] | 3.54
ISSRSPQERSRVLNQVADLLEQSL [W1I] | 2.69
YSSRSPQERSRVLNQVADLLEQSL [W1Y] | 2.68
HSSRSPQERSRVLNQVADLLEQSL [W1H] | 3.56
